How the values were obtained:
IgG1 Fc = IgG1 Fc (Homo sapiens (Human), UniProt P01857 104-328, glycosylated); assay: capillary electrophoresis; 20 mM Tris pH 7.4, 10 mM NaCl, 1 mM MgCl2, 0.05% Tween 20, 37 C; conditions: tags: His; chain copies: 2; label: 5'-FAM
[1] = molecular target: TROP2 FcHis (human TROP2 fused to IgG1 FcHis) (human, UniProt P09758 27-274+P01857:100-328, internal_change); assay: capillary electrophoresis; 10 nM DNA, 4-fold protein; 20 mM Tris-HCl pH 7.4, 10 mM NaCl, 1 mM MgCl2, 0.05% Tween 20; 10 nM aptamer, 37 °C 30 min, then held at 15 °C; CE running buffer 100 mM sodium borate pH 8.35; conditions: protein: commercial; IgG1 Fc-His fusion; chain copies: 2; label: 5' FAM
Sequence of TROP2 FcHis (human TROP2 fused to IgG1 FcHis) (P09758 other isoform, or with tags, fused parts or gaps): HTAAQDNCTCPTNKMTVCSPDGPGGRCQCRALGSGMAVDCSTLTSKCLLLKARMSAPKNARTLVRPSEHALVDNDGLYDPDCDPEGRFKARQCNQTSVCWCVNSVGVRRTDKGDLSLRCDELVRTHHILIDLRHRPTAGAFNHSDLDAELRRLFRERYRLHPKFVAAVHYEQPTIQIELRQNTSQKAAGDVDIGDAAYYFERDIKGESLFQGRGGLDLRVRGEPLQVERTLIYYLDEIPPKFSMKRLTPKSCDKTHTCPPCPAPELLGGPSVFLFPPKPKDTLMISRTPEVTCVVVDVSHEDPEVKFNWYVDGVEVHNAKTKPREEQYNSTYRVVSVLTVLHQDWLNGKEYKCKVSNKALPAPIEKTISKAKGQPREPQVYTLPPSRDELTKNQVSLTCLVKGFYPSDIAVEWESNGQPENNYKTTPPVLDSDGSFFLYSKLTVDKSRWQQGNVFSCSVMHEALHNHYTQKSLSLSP

[2] = molecular target: FcHis (human IgG1 Fc-His, counter-target for specificity) (human, UniProt P01857 100-328); assay: as above; conditions: protein: commercial; tags: His; chain copies: 2; label: 5' FAM

| Binder | Kd (IgG1 Fc) [nM] | binding result [1] | binding result [2] |
| --- | --- | --- | --- |
| Tac-A5 (ssDNA, every T at positions 21-70 is 5-[(3-indolyl)propionamide-N-allyl]-dU (Utrp); T in 5' primer region (1-20) natural) DNA: TCGCCTTGCCGGATCGCAGATCTGTTCCGTGTTCGTTCCTTTCCTTGTTGTGGTCCGTGAGCCTGACACC | > 1000 |  |  |
| ssDNA_neg (ssDNA) DNA: TCGCCTTGCCGGATCGCAGACTTCCCCCCACTCCACTTCTTACTCCTTTCTGGTCCGTGAGCCTGACACC |  | no binding | no binding |
